Data from patent US12139534B2, “Methods and compositions for decreasing soluble immune receptor CD28” (BIOND BIOLOGICS LTD., priority 2018, dated 2024).

B1: antibody #1: sCD28 binding (sweeping) antibody; heavy chain SEQ ID NO: 42, light chain SEQ ID NO: 44 (antibody)
heavy: QIQLVQSGPELKKPGETVKISCKASGYTLTNYGMNWVKQAPGKGLKWMGWINTYTGKPTYVDDFKGRFAFSLETSASTAYLQINNLKNEDTATYFCARGDANQQFAYWGQGTLVTVSAAKTTPPSVYPLAPGSAAQTNSMVTLGCLVKGYFPEPVTVTWNSGSLSSGVHTFPAVLQSDLYTLSSSVTVPSSTWPSETVTCNVAHPASSTKVDKKIVPRDCGCKPCICTVPEVSSVFIFPPKPKDVLTITLTPKVTCVVVDISKDDPEVQFSWFVDDVEVHTAQTQPREEQFNSTFRSVSELPIMHQDWLNGKEFKCRVNSAAFPAPIEKTISKTKGRPKAPQVYTIPPPKEQMAKDKVSLTCMITDFFPEDITVEWQWNGQPAENYKNTQPIMDTDGSYFVYSKLNVQKSNWEAGNTFTCSVLHEGLHNHHTEKSLSHSPGK
light: DIKMTQSPSSMYASLGERVTITCKASQDINSYLSWFQQKPGKSPKTLIYRANRLVDGVPSRFSGSGSGQDYSLTISSLEYDDMGIYYCLQYDEFPPTFGAGTKLELKRADAAPTVSIFPPSSEQLTSGGASVVCFLNNFYPKDINVKWKIDGSERQNGVLNSWTDQDSKDSTYSMSSTLTLTKDEYERHNSYTCEATHKTSTSPIVKSFNRNEC
B2: CD80-Fc: extracellular domain of CD80 fused to an Fc moiety (protein)
chain: VIHVTKEVKEVATLSCGHNVSVEELAQTRIYWQKEKKMVLTMMSGDMNIWPEYKNRTIFDITNNLSIVILALRPSDEGTYECVVLKYEKDAFKREHLAEVTLSVKADFPTPSISDFEIPTSNIRRIICSTSGGFPEPHLSWLENGEELNAINTTVSQDPETELYAVSSKLDFNMTTNHSFMCLIKYGHLRVNQTFNWNTTKQEHFPDN
modifications: left off: a dimerising Fc or GST
notes: extracellular domain of CD80 fused to an Fc moiety
B3: antibody #3: sCD28 binding (sweeping) antibody; heavy chain SEQ ID NO: 50, light chain SEQ ID NO: 52 (antibody)
heavy: EVQLQQFGAELVKPGASVKISCKASGYTFTDYNMDWVKQSHGKSLEWIGDINPNYDSTAYNQKFMGKATLTVDKSSNTAYMELRSLTSEDTAVYYCARSSPYYDSNHFDYWGQGTSLTVSSAKTTPPSVYPLAPGSAAQTNSMVTLGCLVKGYFPEPVTVTWNSGSLSSGVHTFPAVLQSDLYTLSSSVTVPSSTWPSETVTCNVAHPASSTKVDKKIVPRDCGCKPCICTVPEVSSVFIFPPKPKDVLTITLTPKVTCVVVDISKDDPEVQFSWFVDDVEVHTAQTQPREEQFNSTFRSVSELPIMHQDWLNGKEFKCRVNSAAFPAPIEKTISKTKGRPKAPQVYTIPPPKEQMAKDKVSLTCMITDFFPEDITVEWQWNGQPAENYKNTQPIMDTDGSYFVYSKLNVQKSNWEAGNTFTCSVLHEGLHNHHTEKSLSHSPGK
light: QIVLTQSPAIMSASPGEKVTMTCSARSSINYMHWFQQKPGTSPKRWIYDTSKLASGVPARFSGSGSGTSYSLTISNMEAEDAATYYCHQRNSYPFTFGSGTKLEIKRADAAPTVSIFPPSSEQLTSGGASVVCFLNNFYPKDINVKWKIDGSERQNGVLNSWTDQDSKDSTYSMSSTLTLTKDEYERHNSYTCEATHKTSTSPIVKSFNRNEC

How the values were obtained:
human PBMCs = experiment: Soluble CD28 generation by SEB or CMV stimulated PBMCs, human CD28 ELISA; assay type: cell-based; conditions: for amount of sCD28 in culture: PBMCs stimulated with SEB or CMV, TAPI-1 and GM6001 protease inhibitor cocktail; for sCD28 levels detected with antibodies of the invention: stimulated cells with protease inhibitors, sandwich ELISA
Method: (§1) ELISA—Commercial ELISA kits were used for quantitation of the amount of human interferon-gamma (Biolegend, Cat. No. 430103), human interleukin 2 (Biolegend, Cat. No. 431802), human interleukin 6 (Biolegend, Cat. No. 430502), human interleukin 10 (Biolegend, Cat. No. 430603), human […] beta 1 (Biolegend, Cat. No. 436708), human interleukin beta 1 (Biolegend, Cat. No. 437004) and human CD28 (R&D system, Cat. No. DY342). Cell Proliferation and viability (MTT assay) was conducted according to manufacturer instructions (Roche, cat #11465007001). Kynurenine (IDO activity) ELISA kit was conducted according to manufacturer instructions (ImmuSmo Cat #BA E-2200).
(§2) Protease Inhibitors—Protease inhibitors were added at the indicated concentrations at the start of each experiment. In week long assays another portion of the inhibitors was added after 3 days at the final concentration. […] Where mentioned the protease cocktail was composed with a mixture of TAPI-1 and GM6001 at equimolar ratio.
SEB or CMV activation of PBMCs for the generation of soluble CD28—0.3×10^6 PBMCs were stimulated with 0.5 ng/mL SEB (Sigma, Cat. No. S4881) for 5-7 days at 37° C. with/without the indicated concentration of various protease inhibitors in 48 well plate. Alternatively, 0.1×10^6 PBMCs were stimulated with 0.5 ng/mL SEB in 96 well plate format assay. For CMV stimulation 0.5×10^6 PBMCs were stimulated with 0.5 μg/mL CMV peptivator (Milteny Biotec, Cat. No. 130-093-435) for 2-5 days at 37° C. with/without the indicated concentration of various protease inhibitors in a 96 well plate. For continuous shedding experiments PBMC were stimulated with SEB or CMV in 24 well plate for 24 hr, cells were taken and washed three times with RPMI without stimulant and plated again in a 96 well plate. Samples were taken at indicated times and put under freezing conditions until examination for soluble CD28.

Jurkat T cell line = experiment: Soluble CD28 generation by PHA activated Jurkat T cell line, CD28 ELISA; assay type: cell-based, human; conditions: PHA 1-4 μg/mL, TAPI-1 and GM6001 cocktail 0.5-2 μM
Method: as §1, §2
(§3) PHA activation of CD4 T cells or Jurkat T cell line for the generation of soluble CD28—1×10^5 Jurkat cells or CD4 T cells were incubated with the indicated concentration of Phytohemagglutinin (Sigma, Cat. No. L8902) and various protease inhibitors for additional 5 (Jurkat) or 7 days (CD4 T cells).

human CD4 T cells = experiment: Soluble CD28 generation by PHA activated CD4 T cells, CD28 ELISA; assay type: cell-based; conditions: PHA 1-4 μg/mL, TAPI-1 and GM6001 cocktail 0.5-2 μM
Method: as §1, §2, §3

[1] = system: isolated CD3 human T cells; experiment: CD3 T cells stimulation with anti-CD3 OKT3, IFN gamma secretion; assay type: cell-based; conditions: for IFNγ secretion (agonism): anti-CD3 stimulation, CD28.2 2.0 μg/mL, antibodies 0.1-10 μg/mL
Method: T cells stimulation with OKT3—0.1×10^6 isolated CD3 T cells (from healthy donors) were stimulated with indicated amount of anti-CD3 clone OKT3 for 48-72 hr at 37° C. When stated recombinant human CD80-Fc (2 μg/mL, R&D system) was added in soluble form. Antibodies to CD28 or controls were added at the indicated concentration in soluble form.
CD80 is one of the two main ligands for mCD28 along with CD86. The extracellular domain of CD80 fused to an Fc moiety has been used as an immune stimulatory molecule and is under investigation as a cancer therapy. In order to examine the effect of sCD28 on CD80-Fc efficacy, isolated CD3 human T cells were stimulated with plate bound anti-CD3 antibody (OKT3, 2 μg/mL) in the presence of 2 μg/mL soluble recombinant human CD80-Fc.

recombinant human CD28 = target: T1, recombinant human CD28 (Homo sapiens, UniProt P10747); experiment: Direct CD28 ELISA on recombinant human CD28; assay type: binding
T1 construct: recombinant human CD28 lacking the transmembrane and cytoplasmic domains; purchased R&D 342-CD

mCD28 [2] = target: T2, mCD28 (Homo sapiens, UniProt P10747); experiment: CD86 blocking FACS on HEK293 cells stably transfected with human CD28; assay type: binding; conditions: CD86-Fc 5 μg/mL; antibody 20 μg/mL
T2 construct: expressed in transfected cells
Method: CD86 blocking FACS—0.5×10^6 HEK293 cells stably transfected with human CD28 were incubated with 5 μg/mL CD86-Fc (R&D systems, Cat. No. 141-B2) without or with anti CD28 antibodies (20 μg/mL) for 30 min in room temperature. Cells were washed and taken for secondary binding using anti-human heavy and light chains antibody conjugated to fluorophore at 1:5000 dilution for 20 min on ice.

mCD28 [3] = target: T2, mCD28; experiment: FACS binding to mCD28 on naïve CD3 T cells; conditions: antibody 20 μg/mL
Method: Flow Cytometry—Generally, cells were kept on ice during all steps. Prior to staining, 5×10^5 cells were blocked with 50 μg/mL human IgG (Sigma, Cat. No. 14506) in FACS buffer (PBS with 0.1% BSA) for 15 min. Antibodies were used at concentrations recommended by the manufacturer and incubated for 30 min. in the dark. Incubations were done in a volume of 100 μL in 96-well U bottom plates. Cells were washed twice with 200 μL of FACS buffer and transferred to FACS tubes in 150 μL of FACS buffer for analysis. Cells were analyzed on a Gallios Flow Cytometer (Beckman Coulter) using the Kaluza for Gallios Flow Cytometry Acquisition Software.
Lastly, the ability of antibodies #1-3 to bind to mCD28 at all was examined. While it is not essential that a sCD28 antibody not bind mCD28 it is advantageous. Such an antibody could be used for specific detection of the soluble protein, and if used therapeutically would have no effect on the membranal form. Naïve isolated CD3 T cells were evaluated by FACs to assay mCD28 binding. Cells were incubated with antibodies #1-3 (20 μg/mL dark grey histograms) or isotype controls (mIgG, 20 μg/mL, light grey histograms). Binding detection was performed with Alexa Fluor 647-conjugated goat anti mouse secondary antibody.

sCD28 = experiment: Simulated sweeping of soluble CD28 from plasma with antibody coated magnetic beads; set-up: species or system human; conditions: for sCD28 levels in plasma after beads: about 1.5 μg on beads
Method: Simulated sweeping of soluble CD28 from plasma of cancer patient. Antibodies or recombinant proteins were coated on tosyl-activated magnetic beads (Invitrogen, Cat. No. DY-14203) as described by manufacturer protocol. […] The mixture was incubated in a thermomixer for 2 hr, 1000 RPM at 37° C., followed by removal of the beads using a DynaMag magnet (Invitrogen, Cat. No. 12321D) and the samples were examined using CD28 specific ELISA.
Varying amounts (0.125-2 μg) of antibodies #1 and #2 were loaded onto tosyl-activated magnetic beads according to the manufacturer's protocol (Thermo Fisher Scientific). The loaded beads were then added to plasma samples from a cancer patient, and the mixture was incubated in a thermomixer at 37° C. for 2 hours at 1000 RPM. The beads were isolated and removed from the plasma with a magnet and the amount of sCD28 remaining in the serum was measured by ELISA.
Antibody #1 was further tested on various cancer samples (melanoma, colorectal and ovarian) and compared to three B7 molecules which are known ligands of CD28. About 1.5 μg of antibody #1, CD80, CD86 and ICOSL were each loaded onto tosyl-activated magnetic beads and the beads were mixed with plasma as before. A colorectal sample (FIG. 16C), as well as two melanoma samples (FIG. 16D-E), an ovarian sample (FIG. 16F) and a sample from a healthy donor (FIG. 16G) were all tested.

Molecule	amount of sCD28 in culture (human PBMCs)	sCD28 levels detected with antibodies of the invention (human PBMCs)	amount of sCD28 in supernatant (Jurkat T cell line)	amount of sCD28 in supernatant (human CD4 T cells)	IFNγ secretion (agonism) [1]	CD86 binding to mCD28 (mCD28 [2])	binding to mCD28 on the cell surface (mCD28 [3])	also measured
CC(C)C[C@H](CC(=O)NO)C(=O)N[C@@H](Cc1ccc2ccccc2c1)C(=O)N[C@@H](C)C(=O)NCCN [TAPI-1]	diminish the amount of sCD28 in a dose dependent manner	Lower levels of sCD28	diminished the amount of sCD28	diminished the amount of sCD28				
CNC(=O)[C@H](Cc1c[nH]c2ccccc12)NC(=O)[C@@H](CC(=O)NO)CC(C)C [GM6001]	diminish the amount of sCD28 in a dose dependent manner		diminished the amount of sCD28	diminished the amount of sCD28				
CNC(=O)[C@@H](NC(=O)[C@H](CCCc1ccccc1)[C@H](C)N(O)C=O)C(C)(C)C [GI254023X]		Lower levels of sCD28						sCD28 release from activated immune cells (human PBMCs; PBMCs, SEB 1 ng/mL, inhibitor 0.01-1 μM): almost complete inhibition of sCD28 release
B1					no effect on IFN secretion	none of antibody #1 (FIG. 15B), antibody #2 (FIG. 15C), or antibody #3 (FIG. 15D) blocked binding of CD86 to mCD28	bound mCD28	detection compared to CD28.2 (recombinant human CD28): nearly ten-times greater detection; binding to sCD28 (recombinant human CD28; immobilized recombinant human sCD28): much stronger binding to sCD28; comparison with CD80, CD86 and ICOSL (sCD28; about 1.5 μg each on beads): superior to the other three molecules tested; sCD28 levels in plasma after beads (sCD28; all cases): at or below the levels observed in the healthy sample; sCD28 levels in plasma after beads (sCD28; all samples except one melanoma sample): nearly undetectable levels; removal of sCD28 from plasma (sCD28; cancer patient plasma, 0.125-2 μg antibody on beads, 37° C. 2 hours): capable of binding and removing sCD28 from plasma; reduction of sCD28 (sCD28; one of the melanoma samples (FIG. 16D)): greater than 50%
B2								IFN gamma secretion ([1]; plate bound OKT3 2 μg/mL, CD80-Fc 2 μg/mL): increased IFN gamma secretion
B3					no effect on IFN secretion	none of antibody #1 (FIG. 15B), antibody #2 (FIG. 15C), or antibody #3 (FIG. 15D) blocked binding of CD86 to mCD28	do not bind CD28 on the cell surface	
